T1: human Nectin-4 expressed by PC-3-Nectin-4 cells (human, UniProt Q96NY8 32-510)
T1 construct: Full-length human Nectin-4 gene (NCBI Gene ID 81607, 1533 bp) knocked into PC-3 cells; On intact cells in flow cytometry; in denatured cell lysate in Western blotting; also called Nectin-4-expressing cells; Nectin-4-positive cells
T1 sequence: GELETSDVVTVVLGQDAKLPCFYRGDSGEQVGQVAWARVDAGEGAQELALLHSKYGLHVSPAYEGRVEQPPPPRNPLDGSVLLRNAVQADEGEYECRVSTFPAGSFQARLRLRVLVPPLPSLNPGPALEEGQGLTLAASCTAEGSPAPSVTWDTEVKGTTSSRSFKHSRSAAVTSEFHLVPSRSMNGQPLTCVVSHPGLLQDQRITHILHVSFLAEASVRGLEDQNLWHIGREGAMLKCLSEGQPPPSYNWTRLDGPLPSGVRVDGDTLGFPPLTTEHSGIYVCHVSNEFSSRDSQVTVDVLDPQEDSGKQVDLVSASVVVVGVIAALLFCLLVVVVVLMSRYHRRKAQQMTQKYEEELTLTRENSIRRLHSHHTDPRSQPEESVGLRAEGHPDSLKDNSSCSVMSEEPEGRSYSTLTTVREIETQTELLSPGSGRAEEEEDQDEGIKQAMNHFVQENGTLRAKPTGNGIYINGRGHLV

T2: Nectin-4 in human tissue sections (human, UniProt Q96NY8 32-510)
T2 construct: Endogenous Nectin-4 in formalin-fixed, paraffin-embedded human tissue sections (cell membrane and/or cytoplasm), as stained by immunohistochemistry; also called target protein Nectin-4; Nectin-4 in normal human tissues and tumor tissues
T2 sequence: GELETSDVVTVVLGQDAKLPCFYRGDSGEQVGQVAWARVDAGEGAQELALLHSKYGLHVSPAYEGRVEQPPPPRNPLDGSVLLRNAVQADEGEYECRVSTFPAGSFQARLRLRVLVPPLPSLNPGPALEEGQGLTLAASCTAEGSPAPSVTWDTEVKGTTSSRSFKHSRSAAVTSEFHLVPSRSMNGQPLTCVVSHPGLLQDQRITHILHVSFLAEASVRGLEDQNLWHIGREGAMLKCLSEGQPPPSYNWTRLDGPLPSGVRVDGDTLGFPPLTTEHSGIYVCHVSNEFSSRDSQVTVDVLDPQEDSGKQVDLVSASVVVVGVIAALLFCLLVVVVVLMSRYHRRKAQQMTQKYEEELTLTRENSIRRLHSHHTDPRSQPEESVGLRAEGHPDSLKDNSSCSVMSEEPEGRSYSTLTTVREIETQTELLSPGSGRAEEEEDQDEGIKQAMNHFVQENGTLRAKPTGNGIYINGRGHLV


Legend:
[1] = target: recombinant human Nectin-4 protein (human) (UniProt Q96NY8); assay: ELISA, antigen coated at 5 ug/ml, antibody 10 ng/ml
[2] = target: recombinant human Nectin-4 protein (human) (UniProt Q96NY8); assay: ELISA, antigen coated at 5 ug/ml, antibody 100 ng/ml
[3] = target: recombinant human Nectin-4 protein (human) (UniProt Q96NY8); assay: ELISA, antigen coated at 5 ug/ml, antibody 1000 ng/ml
[4] = target: recombinant human Nectin-4 protein (human) (UniProt Q96NY8); assay: ELISA, antigen coated at 5 ug/ml, antibody 10000 ng/ml
[5] = target: T1, human Nectin-4 expressed by …; assay: flow cytometry on PC-3-Nectin-4 cells, antibody 5 ug/ml
[6] = target: recombinant human Nectin-4 protein (human) (UniProt Q96NY8); assay: ELISA, antigen coated at 5 ug/ml, antibody 0 ng/ml (blank control)
[7] = target: T2, Nectin-4 in human tissue sections; assay: IHC, normal human salivary gland, 3 samples, antibody 1 ug/ml
[8] = target: T2, Nectin-4 in human tissue sections; assay: IHC, normal human pancreas, antibody 1 ug/ml
[9] = target: T2, Nectin-4 in human tissue sections; assay: IHC, normal human skin, antibody 1 ug/ml

Binder | OD detection value (OD450 nm-650 nm) [1] | OD detection value (OD450 nm-650 nm) [2] | OD detection value (OD450 nm-650 nm) [3] | OD detection value (OD450 nm-650 nm) [4] | binding result [5] | OD detection value (OD450 nm-650 nm) [6] | binding result [7] | binding result [8] | binding result [9]
Antibody MM11 (antibody, mouse IgG1, kappa, V domains shown, Mouse monoclonal antibody from a hybridoma; heavy chain constant region is mouse IgG1; also called Nectin-4 mouse monoclonal antibody MM11; mouse antibody MM11) VH: DVQLQESGPGLVKPSQSLSLTCSVTGYSITSNFYWNWIRQFPGNRLEWMGYISYDGSNNYNPSLKNRISISRDTSKNQFFLKLNSVTTEDTATYYCVRADYWGQGTLVTVSA VL: DTVMTQTPLSLPVSLGDQASISCRSSQSLESSDGHAYLNWYLQKPGQSPQLLIYRVSNRFSGVLHRFSGSGSGTDFTLKISRVEAEDLGVYFCLQFTHVPFTFGSGTKLEIKR | 0.58 | 1.64 | 2.05 | 1.97 | binds | 0.008 | binds |  | 
Antibody R012 (antibody, V domains shown, Rabbit monoclonal antibody from a phage library; heavy chain constant region is rabbit IgG; also called Nectin-4 rabbit monoclonal antibody R012; rabbit antibody R012) VH: SKSVEESGGRLVTPGTPLTLTCTVSGFSLSTYAMSWVRQAPGKGLEYIGIISGRGTTYYASWLKGRFTISKTSTTVDLKITSPTTEDTATYFCARDAGISDVYTGYFNLWGQGTLVTVSS VL: QPVLAQLPSASAALGASAKLTCTLSSAHRTYTIAWYQQQQGEAPRYLMMLKSDGSYTKGTGVPDRFSGSSSGADRYLIISSVQAADEADYYCGADDSGGYVFGGGTQLTVTG | 0.748 | 1.44 | 1.56 | 1.51 | binds | 0.008 |  | binds | 
Antibody R036 (antibody, V domains shown, Rabbit monoclonal antibody from a phage library; heavy chain constant region is rabbit IgG; also called Nectin-4 rabbit monoclonal antibody R036; rabbit antibody R036) VH: SQSVEESGGRLVTPGTPLTLTCTVSGFSLSSYAMSWVRQAPGKGLEYIGIIGGRGTTYYAIWAKGRFTISKTSTTVDLKITSPTTEDTATYFCARDAGTTYVGTTYVATGYFNLWGQGTLVTVSS VL: QPVLTQPPSASAALGASAKLTCTLSSAHKTYTIAWYQQQQGEAPRYLMILKSDGSYTRGTGVPDRFSGSSSGADRYLIISSVQADDEADYYCGADDSGGYVFGGGTQLTVTG | 0.73 | 1.48 | 1.64 | 1.63 | binds | 0.007 |  |  | binds

Source: EP4725964A1 (Jiangsu Mabwell Health Pharmaceutical R&D Co., Ltd., dated 2026)
